The source of these data is PMC7177284, “A Coil-to-Helix Transition Serves as a Binding Motif for hSNF5 and BAF155 Interaction” (International Journal of Molecular Sciences, 2020).

The target of assay [1] is BAF155^SWIRM (SWIRM domain of human BAF155, residues 449–546) (human) (UniProt Q92922). The experiment in a line: ITC; VP-ITC, 25 °C, 25 mM sodium phosphate, 100 mM NaCl, 1 mM TCEP, pH 7.0; typically 160 µM hSNF5 injected into 10 µM BAF155^SWIRM or mutant in the cell; single-site model.
Assay [2] has as its target T1, BAF155^SWIRM (SWIRM domain of human BAF155, residues 449–546) (human, UniProt Q92922 449-546).
T1 construct: human BAF155, SWIRM domain, residues 449-546; 15N- or 13C,15N-labelled for the NMR experiments; also called BAF155/SRG3; source: E. coli BL21 (DE3), purified (Ni-NTA, TEV cleavage, Superdex 200); not shown: His6, N-terminal, cleaved
Described as above. The following applies: both partners purified.

Assay [3] deals with T1, BAF155^SWIRM (SWIRM domain of human …). The assay can be described thus: SEC-MALS; Wyatt WTC-030S5 column, 0.5 mL/min, 10 mM HEPES pH 7.0, 100 mM NaCl, 2 mM DTT; hSNF5^171–258 0.2 mM and BAF155^SWIRM 0.3 mM, individually or together. As to conditions: both partners purified.
Assay [4] has as its target T2, BAF155^SWIRM N476A/N479A mutant (human, UniProt Q92922 449-546, N476A | N479A).
T2 construct: human BAF155, SWIRM domain, residues 449-546, N476A and N479A; PDB 6KZ7 holds the wild-type parent of the same limits; source: E. coli BL21 (DE3), purified (Ni-NTA, TEV cleavage, Superdex 200); not shown: His6, N-terminal, cleaved
The experiment in a line: ITC; VP-ITC, 25 °C, 25 mM sodium phosphate, 100 mM NaCl, 1 mM TCEP, pH 7.0; typically 160 µM hSNF5 injected into 10 µM BAF155^SWIRM or mutant in the cell; single-site model. The following applies: both partners purified.

Assay [5] has as its target T1, BAF155^SWIRM (SWIRM domain of human …). The description is as above. The following applies: both partners purified. This is another data set of the same source.

Changes are numbered by the printed parent chain. Names and notes keep the numbering of the source.

T1 sequence (Q92922 449-546): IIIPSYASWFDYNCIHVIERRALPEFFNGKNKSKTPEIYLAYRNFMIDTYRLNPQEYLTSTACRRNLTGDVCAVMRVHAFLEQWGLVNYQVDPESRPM
T2 sequence (Q92922 449-546 N476A/N479A): as the sequence (Q92922 449-546) above, with N28A, N31A counted along it
Chain of BAF155^SWIRM (SWIRM domain of human BAF155, residues 449–546) (human) (Q92922 449-546): as the sequence (Q92922 449-546) above

Turning to “hSNF5^SFH1/171–253 (chimeric mutant with the N-terminal tail region from the yeast protein SFH1) (from UniProt Q12824 185-253) (domain or fragment)”, in assay [1], the Kd stood at 0.48 µM and the dH is -56.1 kJ/mol.

B1: hSNF5^174–253 (domain or fragment, human, UniProt Q12824 174-253, looked up)
chain: AVIHENASQPEVLVPIRLDMEIDGQKLRDAFTWNMNEKLMTPEMFSEILCDDLDLNPLTFVPAIASAIRQQIESYPTDSI
notes: human SNF5 (hSNF5), residues 174-253; source: E. coli BL21 (DE3), purified (Ni-NTA, TEV cleavage, Superdex 200); not shown: His6, N-terminal, cleaved
In assay [2], B1 yielded a Kd of 0.11 ± 0.03 µM and a dH of -66.1 ± 2.09 kJ/mol.

B2: hSNF5^171–258 (N- and C-terminal elongated hSNF5 RPT1 domain) (domain or fragment, human, UniProt Q12824 171-258, looked up)
chain: HDPAVIHENASQPEVLVPIRLDMEIDGQKLRDAFTWNMNEKLMTPEMFSEILCDDLDLNPLTFVPAIASAIRQQIESYPTDSILEDQS
notes: 15N- or 13C,15N-labelled for the NMR experiments; modified pET21b vector; also called human SNF5; SNF5/INI1/BAF47; source: E. coli BL21 (DE3), purified (Ni-NTA, TEV cleavage, Superdex 200); not shown: His6, N-terminal, cleaved
For the molecule B2, the “stoichiometry N” value in assay [3] is 1.

B3: hSNF5^186–253 (domain or fragment, human, UniProt Q12824 186-253, looked up)
chain: LVPIRLDMEIDGQKLRDAFTWNMNEKLMTPEMFSEILCDDLDLNPLTFVPAIASAIRQQIESYPTDSI
notes: human SNF5 (hSNF5), residues 186-253; source: E. coli BL21 (DE3), purified (Ni-NTA, TEV cleavage, Superdex 200); not shown: His6, N-terminal, cleaved
Take B3: in assay [2], the affinity, expressed as Kd, was 0.76 ± 0.08 µM and the dH was -66.9 ± 1.26 kJ/mol.

B4: hSNF5^183–253 (domain or fragment, human, UniProt Q12824 183-253, looked up)
chain: PEVLVPIRLDMEIDGQKLRDAFTWNMNEKLMTPEMFSEILCDDLDLNPLTFVPAIASAIRQQIESYPTDSI
notes: human SNF5 (hSNF5), residues 183-253; also called whole αN helix-deletion mutant; source: E. coli BL21 (DE3), purified (Ni-NTA, TEV cleavage, Superdex 200); not shown: His6, N-terminal, cleaved
In assay [2], B4 yielded a dissociation constant (Kd) of 0.29 ± 0.08 µM and a dH of -78.2 ± 3.35 kJ/mol.

B5: hSNF5^171–253 (domain or fragment, human, UniProt Q12824 171-253, looked up)
chain: HDPAVIHENASQPEVLVPIRLDMEIDGQKLRDAFTWNMNEKLMTPEMFSEILCDDLDLNPLTFVPAIASAIRQQIESYPTDSI
notes: source: E. coli BL21 (DE3), purified (Ni-NTA, TEV cleavage, Superdex 200); not shown: His6, N-terminal, cleaved
Regarding B5, the values for the dissociation constant Kd in assay [4] and in assay [2] were 0.14 ± 0.03 µM and 0.11 ± 0.02 µM, respectively. The dH in assay [4] was -74.1 ± 2.93 kJ/mol; in assay [2], -82.4 ± 1.26 kJ/mol. Further, the “stoichiometry N” value in assay [5] was found to be 1.

B6: hSNF5^171–253 with the E184A mutation (domain or fragment, human, UniProt Q12824 171-253, looked up)
chain: B5 chain with E14A
notes: as for B5
In assay [2], B6 gave a Kd of 0.37 ± 0.1 µM and a dH of -46.9 ± 1.67 kJ/mol.

B7: hSNF5^179–253 (domain or fragment, human, UniProt Q12824 179-253, looked up)
chain: NASQPEVLVPIRLDMEIDGQKLRDAFTWNMNEKLMTPEMFSEILCDDLDLNPLTFVPAIASAIRQQIESYPTDSI
notes: human SNF5 (hSNF5), residues 179-253; source: E. coli BL21 (DE3), purified (Ni-NTA, TEV cleavage, Superdex 200); not shown: His6, N-terminal, cleaved
In assay [2], B7 came in with a dissociation constant (Kd) of 0.3 ± 0.05 µM and a dH of -87.9 ± 2.51 kJ/mol.

B8: hSNF5^181–253 (domain or fragment, human, UniProt Q12824 181-253, looked up)
chain: SQPEVLVPIRLDMEIDGQKLRDAFTWNMNEKLMTPEMFSEILCDDLDLNPLTFVPAIASAIRQQIESYPTDSI
notes: human SNF5 (hSNF5), residues 181-253; source: E. coli BL21 (DE3), purified (Ni-NTA, TEV cleavage, Superdex 200); not shown: His6, N-terminal, cleaved
In assay [2], B8 had a dissociation constant (Kd) of 0.3 ± 0.07 µM and a dH of -54 ± 1.67 kJ/mol.
